In patent publication US20110300113A1, “Death Receptor CD95 Controls Neurogenesis of Adult Neural Stem Cells in Vivo and in Vitro” (DEUTSCHES KREBSFORSCHUNGSZENTRUM, priority 2006, published 2011):

What was measured:
[1] = test system: neural progenitor cells; test: Proliferation rate of neural progenitor cells; assay type: cell-based, mouse; conditions: compared to untreated cells; data not shown
Procedure: Mouse adult neural stem cell culture. NSCs were isolated as previously described^30. Briefly, 6 week old female C57BL6 mice were sacrificied and tissue from hippocampus, SVZ and spinal cord was dissected out. The tissue was digested, washed and cultured in Neurobasal Medium (Invitrogen Karlsruhe, Germany) supplemented with B27 (Invitrogen), Penicillin-Streptomycin (Invitrogen), Glutamax (Invitrogen), Heparin (2 μg/ml) (Sigma) and the growth factors EGF (20 ng/ml) (Promocell) and bFGF (20 ng/ml) (Promocell). After 7 days in culture neurospheres were harvested by centrifugation, dissociated using trypsin (Invitrogen) and replated. Cells were passaged once to twice weekly. Cells used for experiments were passaged between 10 to 15 times. Cells were stimulated with 10 μM Retinoic Acid or 1 activation unit of CD95L-T4. One activation unit was defined as the amount of CD95L-T4 required to increase phosphorylation of GSK3β. Activation units were defined freshly for each batch of CD95L-T4 and varied from 5-40 ng/ml.

[2] = test system: mouse adult SVZ NSCs; test: Gene expression by quantitative real-time PCR in adult SVZ NSCs; assay type: cell-based; conditions: 48 h after stimulation
Procedure: Real-time Quantitative PCR. 24 h cells after plating cells were stimulated with 1 activation unit of CD95L-T4. After 48 h RNA was isolated using the RNeasy Mini Kit (Qiagen). Real-time quantitative PCR was carried out using Sybr Green core kits (Eurogentec) and Uracil-N-glycosylase (Eurogentec). For determining CD95L induction after global ischemia, the hippocampi were dissected out and stored in RNAlater reagent (Ambion). RNA was extracted using the RNeasy Mini Kit (Qiagen). Real-time quantitative PCR was carried out using Sybr Green core kits (Eurogentec) and Uracil-N-glycosylase (Eurogentec). Primers used for quantitative real-time PCR were designed using Primer 3 software (http://fokker.wi.mit.edu/cgi-bin/primer3/primer3_www.cgi).

[3] = test system: SVZ NSCs; test: β-III-tubulin expression in adult SVZ neural progenitor cells (flow cytometry); assay type: cell-based, mouse; conditions: SVZ progenitors, in the presence of growth factors
Description: Lentiviral infections. SVZ NSCs were infected with the lentiviral vector pEIGW and pEIGW-GSK3βS9A at a multiplicity of infection (MOI) of 5. The plasmids were constructed by replacing the eGFP sequence between the EF1α promotor and the WPRE element in pWPTS-eGFP with the IRES-eGFP cassette form pIRES2-eGFP (Clontech, Germany). The recombinant lentiviral vector pEIGW-GSK3βS9A was constructed using pcDNA3 HA-GSK3βS9A. This vector encodes a constitutively active GSK3β mutant containing a serine-to-alanine substitution at residue 9 (GSK3βS9A). Expression of all transgenes was confirmed in infected cells by FACS analysis of GFP expression. The percentage of infected cells was 70-90%.
siRNA. […] 48 h later pp60 src knockdown was assessed by Western Blot. At the same time, cells were stimulated with CD95L-T4 and analysed after 48 h for β-III-tubulin positive cells.
For staining of intracellular markers, cells were harvested, fixed with 4% PFA for 10 min on ice, washed and permeabilized using 0.1% Saponin (Sigma-Aldrich) in PBS with 10% FCS (SAP). […] Cells were washed again three times with SAP and analysed. […] To quantify DNA fragmentation, cells detached with trypsin were centrifuged, washed and fixed with 70% ethanol at −20° C. for 1 h. […] After final washings, all samples were analysed using a FACS-Calibur (Becton Dickinson) and CellQuest Software (Becton Dickinson). […]

[4] = test system: neural progenitor cells; test: GFAP expression (glial differentiation) in neural progenitor cells; assay type: cell-based, mouse; conditions: data not shown
Procedure: For staining of intracellular markers, cells were harvested, fixed with 4% PFA for 10 min on ice, washed and permeabilized using 0.1% Saponin (Sigma-Aldrich) in PBS with 10% FCS (SAP). Cells were incubated with primary antibody or isotype for 30 min on ice. Cells were washed three time with SAP and incubated with secondary antibody for 30 min on ice. Cells were washed again three times with SAP and analysed. Antibodies used were: anti β-III-tubulin (Chemicon) 1:100, anti GFAP (Chemicon) 1:100 and isotype mouse IgG1 (Sigma) 1:20. Secondary antibody was goat anti-mouse PE 1:100 (Dianova). To quantify DNA fragmentation, cells detached with trypsin were centrifuged, washed and fixed with 70% ethanol at −20° C. for 1 h. Fixed cells were resuspended in a hypotonic lysis buffer (0.1% sodium citrate and 0.1% Triton X-100) containing […] of propidium iodide, incubated at 4° C. overnight. After final washings, all samples were analysed using a FACS-Calibur (Becton Dickinson) and CellQuest Software (Becton Dickinson).
Mouse adult neural stem cell culture. NSCs were isolated as previously described^30. Briefly, 6 week old female C57BL6 mice were sacrificied and tissue from hippocampus, SVZ and spinal cord was dissected out. […]

[5] = test system: human neural progenitor cells; test: Neuronal differentiation (β-III-tubulin) of human neural progenitor cells after growth factor removal; assay type: cell-based
Procedure: Immunostainings. Immunohistochemistry and Immunocytochemistry were performed as previously described. Primary antibodies used were anti GFP (chicken) (Ayes Labs) 1:1000, anti NeuN (mouse), (Chemicon) 1:200, anti β-III-tubulin (mouse) (Chemicon 1:200), anti GFAP (mouse) (Chemicon 1:200), active-β-Catenin (mouse) (P-Ser37 or P-Thr41; 1:800) (Upstate), phosphorylated GSK3β (P-Ser9-GSK3β, 1:1000). The mouse Pax6 antibody developed by A. Kawakami was obtained from the Developmental Studies Hybridoma Bank developed under auspices of the NICHD and maintained by The University of Iowa, Department of Biological Sciences, Iowa City, Iowa 52242. Secondary antibodies used were goat anti-rabbit alexa 488 (Molecular Probes) 1:500, goat anti-mouse rhodamine X (Dianova) 1:200, Dapi (Sigma) 1:3000, donkey anti-chicken FITC (Dianova) 1:200.
Human neural progenitor generation and culture. The human ES cell line H9.2 was cultivated on mitotically inactivated mouse embryonic fibroblasts (MEFs) in Knockout Dulbecco's Modified Eagle Medium (KO-DMEM, Gibco) containing 20% Knockout Serum Replacement, 1% non-essential amino acids, 1 mM I-glutamine, 0.1 mM β-mercaptoethanol (all from Gibco), and 4 ng/ml human basic fibroblast growth factor (FGF-2, Invitrogen). Cells were routinely passaged every four days by treatment with 100 units collagenase IV (Gibco) for one hour. […]

B1: CD95L: the ligand for CD95 (APO-1/Fas) (protein, listed as Homo sapiens)
chain: MQQPFNYPYPQIYWVDSSASSPWAPPGTVLPCPTSVPRRPGQRRPPPPPPPPPLPPPPPPPPLPPLPLPPLKKRGNHSTGLCLLVMFFMVLVALVGLGLGMFQLFHLQKELAELRESTSQMHTASSLEKQIGHPSPPPEKKELRKVAHLTGKSNSRSMPLEWEDTYGIVLLSGVKYKKGGLVINETGLYFVYSKVYFRGQSCNNLPLSHKVYMRNSKYPQDLVMMEGKMMSYCTTGQMWARSSYLGAVFNLTSADHLYVNVSELSLVNFEESQTFFGLYKL
modifications: CHAIN (1)..(281) This feature is the amino acid sequence for CD95L protein. CD95L is a ligand for CD95. CD95 is APO-1/Fas and a member of the tumor necrosis factor receptor superfamily.
- proliferation rate [1]: did not lead to significant changes in the proliferation rate
- Neurogenin (Ngn1) expression [2]: much higher
- β-III-tubulin expression [3]: greatly increased β-III-tubulin expression
- GFAP expression [4]: did not change GFAP expression
- number of neurons / β-III-tubulin positive cells [5]: strikingly increased number of neurons
